Source: the DeepSol protein solubility set

Assay: soluble on expression in E. coli; label from the status in PepcDB or PDB records

Sequence | soluble on expression in E. coli
MTAVPLPILHLPHNALQMSLKQMSTVEHLALSFVSNKTRRLIKMLKEKNHITCISMGSPISIDFLSLTFDYKSNQKIVKIDNPEQNGSLSRLNLPGFTEKQWIEHFANVFIQNKKVMLISDLGERKIEDIYESIKDLNIVTLDIMTSEFQDCKLFKLFPTLEELGVSETPLSAPIFVQNFQSLTAIDVTLDDILSSNCTNLCLDDQLISDKDLNIFMRNWIKGSNPRLRKLTNTSVRHERDISDSVFFRGISQIKTRDWCDEDTFDKEFEIKNEDGVRAKVTLSTFSFIFCIEDF | not soluble
MTDANYPIYGDIDGPIIMIGFGSIGRGTLPLIERHFNFDRTRLVVIDPREDIAAFLAERNIRHVQTHLTKENYKDVLKPLLKGVQGKGFCVNLSVDAASVDLMRICRKHGMLYIDTVVEPWPGFYFDADADNRARTNYSLRETMLKERARKPGGTTAVSTCGANPGMVSWFVKQALVNLAKDTGLDIEEPQSHDREGWAKLMQQLGVKGVHVAERDTQRAKEPKPFGAFWNTWSVEGFIAEGFQPAELGWGTHENWMPKNAKKQKKGSKAAIYLDQPGANTRVRTWCPGLGAQYGFLVTHNEAISISDYFTVRNDDGDVTYRPTCHYAYHPCNDAILSLHELFGNGGNPQPIQHVLGEDELVDGADELGVLLYGHDRNAYWYGSRLSLEEARSLAPSQNATGLQVSSAVLAGMAWAIENPEAGIVEADEMDYRRCLEVQRPYLGPVEGHYTDWTPLDGRPGLFPDNIDMSDPWQFRNILVRAAALEHHHHHH | soluble
MTDERYGYIHASMLPTQCLCTKLRRAARSVSRFYDEALADTGLKVAQFSLLRHLRRLDRPSISELAEAMGLDRSTLGRNLRVLEGDGLLRLTGGEDQRNRLVELTPAGLDALERGTPAWEDAQRRLAGRLGEERSGALAALLAELERLD | not soluble
MTDKQAIREQMWQEMTEKKVGRFPFPLKGRIPNFKGAEQATRHLIQLEAYKQAKVVKVNPDSPQLPLRAQVLMDGKTLLVPTPRLKDGFILVKPEWVPEGEERKAVSLRNILSYGKVISLTEMPEIDLIVMGSVAVDRSGRRIGKGEGYADREYAIIRELGNRPVPVVTTVHQVQLVDVELPRDAYDVTVDWIATTEGLMQSVGAIEKPTGIVWSEVTEEELEAMPVLREIRELTKRQLEHHHHHH | soluble
MTDNARKEYLNQFFGSKRYLYQDNERVAHIHVVNGTYYFHGHIVPGWQGVKKTFDTAEELETYIKQQDLEYEEQKQLTLFLEHHHHHH | not soluble
MTDNDAVSAAFAHMRQEAKKRTGTVPNLNRPLPKASKSLADNDATPAVPKQRGMATGPDGRRRRRSYSVQRAGSILSDEIKKRGWRKEIAGGWVNSHWDDLVGAQIAAHTKVEMFKDKALFITCDSTAWATNLRMMQRIILRSISEQIGPDIIVELKIFGPKAPSWRHGPLHVKGRGPRDTYG | not soluble
MTDNSNIRVVVGMSGGVDSSVTALLLKEQGYDVIGVFMKNWDDTDEFGVCTATEDYKDVAAVADQIGIPYYSVNFEKEYWDRVFEYFLAEYRAGRTPNPDVMCNKEIKFKAFLDYAMTLGADYVATGHYAQVTRDENGIVHMLRGADNNKDQTYFLSQLSQEQLQKTLFPLGHLQKPEVRRIAEEAGLATAKKKDSTGICFIGEKNFKDFLGQYLPAQPGRMMTVDGRDMGEHAGLMYYTIGQRGGLGIGGQHGGDNKPWFVVGKDLSKNILYVGQGFYHDSLMSTSLTASEIHFTRDMPNEFKLECTAKFRYRQPDSKVTVYVKGNQARVVFDDLQRAITPGQAVVFYNEQECLGGGMIDQAYRDDKICQYIMAGDPLEHHHHHH | not soluble
MTDQPIIDYRFLEPLPRGIILAATPLGNIGDASPRLAQALAQAHVVAAEDTRRTRALAQALGVEITGQVLSNFDHNEQGRAQQLVEMARTHTVVVVTDAGMPIVSDPGFPLVEAAHKAGVPVTCFPGPSAVPTALALSGLHVGKFAFDGFAPRKQGQRRAWLESLQQEQRAVCFFESPHRIAATLADAAEVLGAKRRAAVARELTKTFEEVRRGGLGELAEWAAKGIKGEVSVVIEGVQHVQHEDVHSLVAVVEERVLAGERLKSACGEVAAHYGVSKKQLYDAVLESRAE | soluble
MTDTASKYAVKLKTNFEDPKWVNRHKFMFNFLDINGNGKITLDEIVSKASDDICAKLGATPAQTQRHQEAVEAFFKKIGLDYGKEVEFPAFVNGWKELAKHDLKLWSQNKKSLIRNWGEAVFDIFDKDGSGSISLDEWKTYGGISGICPSDEDAEKTFKHCDLDNSGKLDVDEMTRQHLGFWYTLDPNADGLYGNFVP | soluble
MTDVALSQDVSRFLRYLGVERQLSPITLLNYQRQLDAIIALAGETGLKSWQQCDAAIVRSFAVRSRRKGLGPASLALRLSALRSFFDWLVSQGELKANPAKGVSAPKAPRHLPKNIDVDDVNRLLDIDLNDPLAVRDRAMLEVMYGAGLRLSELVGLDIKHLDLDTGEVWVMGKGSKERRLPIGRNAVTWIEHWLDLRGLFASDEEALFLSKLGKRISARNVQKRFAEWGIKQGLNSHVHPHKLRHSFATHMLESSGDLRGVQELLGHANLSTTQIYTHLDFQHLASVYDAAHPRAKRGK | not soluble
MTDVEIKAENGSGDASLEPENLRKIFVGGLTSNTTDDLMREFYSQFGEITDIIVMRDPTTKRSRGFGFVTFSGKTEVDAAMKQRPHIIDGKTVDPKRAVPRDDKNRSESNVSTKRLYVSGVREDHTEDMLTEYFTKYGTVTKSEIILDKATQKPRGFGFVTFDDHDSVDQCVLQKSHMVNGHRCDVRKGLSKDEMSKAQMNRDRETRGGRSRDGQRGGYNGGGGGGGGWGGPAQRGGPGAYGGPGGGGQGGYGGDYGGGWGQQGGGGQGGWGGPQQQQGGGGWGQQGGGGQGGWGGPQQQQQGGWGGPQQGGGGGGWGGQGQQQGGWGGQSGAQQWAHAQGGNRNY | not soluble
MTDYAHKMSLDLRMIDLERYSDHIDNKASHCAKMLNDYYQKFDAQKGTQFVFSDLGTYKPGGEFNVYSEIKRKLVEDYHIPSHEVRFIQECKNEKAKKAMVDAMNRGDIRIIFGSTSMLGTGVNAQQRAVAIHHLDTPWRPSDLEQRNGRAVRKGNMIAKEFADNKVDVIIYAVERSLDSYKFNLLHNKQLFINQLKTNTLGSRTIDEGSMDEDGGMNFSEYVAVLSGNTNLLEKAKLDKKIATLESERKNFLRERDTATGKLAEIDSSVSFHSDKIKEAKEDLACFEKRVERDAEGLPINKLTIKGVEGSTDIKVIAARLQEIEEKARTKGEYNKIGEIYGFSIMVKTENSSKELFDCSSNRFFVKGQESIYYTYNNGKLASDPKLACQNFINALERIPKVIESHEKEKEKVSANKEVYMTIAGGSWKKEDELRSLKGQAAELDRKIALTLAPPEEEKETEEEKQVQEHGISGKEPIQETRYSAEPISHKQAEKTPPSEQVTPPPTRQPRSNEPGGYIETQMEIG | not soluble
MTDYDLAKETAAWLNKQLQIRPVLGIVCGSGLGKIGDSLETSITVAYSDIPNFPVGSVKGHAGSLIFGSVNGVSCVCMKGRFHLYEGHTAARATFPMRVFKALGVKIVVLTNAAGGLNPSYRPGDFMVVRDHINLPGLAGANPLTGPNDDTEGERFPSMTSVYDKTLRKYAISAARELGMSYATHEGVYCCVNGPSFETPAECKILRLMGSDAVGMSTAPETIVAKHGGMRCLAVSLISNVIASNCETPAEPTHEEVLRAGEEASARMTALVKLVIEKIRGELPR | soluble
MTEAQRHQILLEMLAQLGFVTVEKVVERLGISPATARRDINKLDESGKLKKVRNGAEAITQQRPRWTPMNLHQAQNHDEKVRIAKAASQLVNPGESVVINCGSTAFLLGREMCGKPVQIITNYLPLANYLIDQEHDSVIIMGGQYNKSQSITLSPQGSENSLYAGHWMFTSGKGLTAEGLYKTDMLTAMAEQKMLSVVGKLVVLVDSSKIGERAGMLFSRADQIDMLITGKNANPEILQQLEAQGVSILRVLEHHHHHH | not soluble
MTEDGVMKIDASTSTIKEPEPADCVILPTHTNEQVVYYKSWIAFGDNPNYLTYNRDLGYADWYGIVDCSDSPPTGPGVYKAFIYVNDLNYQESGNPLFKVTGRLKFLANKDTSDTMMKLEIFEQNRLEELRLSPKKMSDSQVIAIILFDNEETNSAICYSEQLESSIKVHLPVGSPAKAGQLILFTEYNYENDTYFPDPRPDAIEYRECEMTRIENGELLISAKAACSSIETHITYPQSVAFADTFGKVNVAAESMERGVTYRVELAINIIDSEANNVPLFKISDIGEKLTGEENEAFLRKLNDFEELQGTWEDWTPEEIAVELEPVAAAEEPADPEVEEAKIEENGVNDESLTQSESDSVFLPQIESSASSEETMSESNSAENSEKPKKTFGRMPQSLSESSSSTISSSKVGVDHSVIVLNVDNDECVGFETTQLKLMTICTAGVTVPLRPYGIFQFIAAGNNYGKTSIQTQSARVSECEGAVFSSDDVPKISANVIFSSNPKHKSYNKEVGVSDRYGFVEIPRITGDFEFGTVYSTQITMVQYGDPLKACFKAVAPLKRQFIDDLDHYLQVMGKYEDNIYQLSRKNGLGAKSISRLPNEPRNGSKHGSTKRFTTPHVTGLVVDMEKRGNYFGCVWTCFGDVVFKSTPTFSQNGGYPSVGDLVNIRVEILSPGTKDQKNLGASMTEKPASLSTTVIWRNNGFIVKAYLIMKPEKLIYSEDNNRFYEHDQLGIVVADSSIYGSDNEQSKVFEFERLRNPITLGFTTNLMNKCYWAARLPMIHREPSPPEPINKYNDENVYDDFQKGGPQSVNSYRSDRQYQEKPPMQYQSYHDPADTISIHSQDNHRPMETRSNAGTSVSSVDRKEVGVVMKKVDKNTQIVYLSGQKAAAIHHWNTHSQSTIVGNSYIFMYRPIEVHKATHYAPFEITQVVEILNTENHGRVDRSEFSSLFTFDLCNVDQRYVERLAFGEALVLRSNDVGHVVMASNVKTPLNPSMTAVEVCQTYKGKRESENLVGYCRLVYGKVPREIVDGHFSDQFVSAYYFELHEILATSNAYIVRNENLDRRNLRGNTIEEVRDDISIQKRIAHMNFGQNEQQQQQSSLSSRGPTRPYSPVGSYQSSHQNFDNRSAAHNGDGRSTSQSHHSAGGSMNHQNFYQPPVYQSSSSQQSYQPRYNGAPSGPLPPPSSQSSFNGAPAPPHYSEMSNDYNRMVRKLAELTDTAAQMIINNDIRQQIKNISPDLLDDLERNIDACQREKRHYYEKYGN | not soluble
MTEDRLSAEDKKFLEVERALKEAALNPLRHATEELFGDFLKMENITEICYNGNKVVWVLKNNGEWQPFDVRDRKAFSLSRLMHFARCCASFKKKTIDNYENPILSSNLANGERVQIVLSPVTVNDETISISIRIPSKTTYPHSFFEEQGFYNLLDNKEQAISAIKDGIAIGKNVIVCGGTGSGKTTYIKSIMEFIPKEERIISIEDTEEIVFKHHKNYTQLFFGGNITSADCLKSCLRMRPDRIILGELRSSEAYDFYNVLCSGHKGTLTTLHAGSSEEAFIRLANMSSSNSAARNIKFESLIEGFKDLIDMIVHINHHKQCDEFYIKHR | soluble
MTEEIVELVLRERISPLLRSHGGDLSLSQIKDKTVFVRFSGACRFCPAAHETVEKIVQAMIREYFKDDNIDVILENSVSDDLLEQAKNILRKPK | not soluble
MTEHKSGFVSIIGRPNVGKSTFVNRVIGHKIAIMSDKAQTTRNKIQGVMTRDDAQIIFIDTPGIHKPKHKLGDYMMKVAKNTLSEIDAIMFMVNANEEIGRGDEYIIEMLKNVKTPVFLVLNKIDLVHPDELMPKIEEYQSYMDFTEIVPISALEGLNVDHFIDVLKTYLPEGPKYYPDDQISDHPEQFVVGEIIREKILHLTSEEIPHAIGVNVDRMVKESEDRVHIEATIYVERDSQKGIVIGKGGKKLKEVGKRARRDIEMLLGSKVYLELWVKVQRDWRNKVNFIRQIGYVEDQD | not soluble
